{
  "source": "paper PMC10627512",
  "molecular_target": "HipB of the E. coli O127:H6 HipBST toxin-antitoxin system (E. coli O127:H6) (UniProt P23873)",
  "assay": "crystal structure",
  "data": [
    {"substance": "HipB of the E. coli O127:H6 HipBST toxin-antitoxin system (from UniProt P23873 1-88) (natural protein)", "values": [
      {"measurement": "stoichiometry N", "value": 2}
    ]}
  ]
}
